Data taken from patent publication US20060228367A1 (AstraZeneca / MedImmune, published 2006).
Residue numbers refer to the chain shown, from its start. Like-named read-outs stand apart in the source and are kept apart here.

B1: monoclonal antibody 168-A5-338-284 (antibody, V domains shown)
VH: QVQLKESGPGLVAPSQSLSITCTVSGFSLSSYGVHWVRQSPGKGLEWLGVMWGDGSTNYHSGLISRLTISKDSSKSQVFLKLNSLQTDDTATYYCGKSFGVYAVDYWGQGTSVTVSS
VL: DIQMTQTTSSLSASLGDRVTINCRASQDVNNYLNWYQQKPDGTVKLLIYYTSMLHSGVPSRFSGSGSETDYSLTITNLEQEDIATYFCQQGETLPPTFGGGTKVEIK
notes: Mouse hybridoma antibody purified on protein A; also called mAb338
B2: monoclonal antibody 168-A5-234-114 (antibody, V domains shown)
VH: B1 VH with S30T, S31D, H35S, S40P, M51I, S56N, G62A, T68S, S73N, V104M
VL: B1 VL with D1E, A25T, V29T, L33I, E68G, T76S, E92D
notes: Mouse hybridoma antibody purified on protein A; also called mAb234; mAb 234

How the values were obtained:
[1] = target: T1, soluble histidine-tagged hMPV F protein from NL\1\99 (human metapneumovirus, isolate NL/1/99, UniProt Q6WB98 19-490); assay: Biacore SPR; F-99-1 immobilised at 80 RU, mAb injected
T1 construct: also called sFNL\1\99; soluble FNL\1\99

[2] = target: T2, soluble histidine-tagged hMPV F protein from NL\1\00 (human metapneumovirus, isolate NL/1/00, UniProt Q6WB98 19-490); assay: Biacore SPR; F-00-1 immobilised at 134 RU, mAb injected
T2 construct: the reverse primer ends the F part at ...AEKGNTG before the tag; also called sFNL\1\00; soluble FNL\1\00

[3] = target: T3, F protein of hMPV strain NL\1\99 (subtype B1), on virus (human metapneumovirus, isolate NL/1/99, UniProt Q6WB98 19-539); assay: cell-based or functional assay
[4] = target: T4, F protein of hMPV strain NL\1\00 (subtype A1), on virus (human metapneumovirus, isolate NL/1/00, UniProt Q6WB98 19-538); assay: cell-based or functional assay
[5] = target: T1, soluble histidine-tagged hMPV F protein …; assay: Biacore SPR; average of the two F-99-1 surfaces
[6] = target: T2, soluble histidine-tagged hMPV F protein …; assay: Biacore SPR (summary table)
[7] = target: T1, soluble histidine-tagged hMPV F protein …; assay: Biacore SPR (summary table)
[8] = target: T1, soluble histidine-tagged hMPV F protein …; assay: Biacore 3000 SPR; antigen immobilised on CM5 at 80 RU, mAb injected
[9] = target: T2, soluble histidine-tagged hMPV F protein …; assay: Biacore SPR (comparison table; virus type A)
[10] = target: T1, soluble histidine-tagged hMPV F protein …; assay: Biacore SPR (comparison table; virus type B)
[11] = target: T3, F protein of hMPV strain NL\1\99 …; assay: cell-based or functional assay; remark: listed apart in the source
[12] = target: T5, F protein of hMPV strain NL\1\94 (subtype B2), on virus (human metapneumovirus, isolate NL/1/94, UniProt Q6WB98 19-539); assay: cell-based or functional assay
[13] = target: T4, F protein of hMPV strain NL\1\00 …; assay: cell-based or functional assay; remark: listed apart in the source
[14] = target: T6, F protein of hMPV strain NL\17\00 (subtype A2), on virus (human metapneumovirus, isolate NL/17/00, UniProt Q6WB98 19-539); assay: cell-based or functional assay
[15] = target: T3, F protein of hMPV strain NL\1\99 …; assay: cell-based or functional assay; remark: listed apart in the source
[16] = target: T5, F protein of hMPV strain NL\1\94 …; assay: cell-based or functional assay; remark: listed apart in the source
[17] = target: T4, F protein of hMPV strain NL\1\00 …; assay: cell-based or functional assay; remark: listed apart in the source
[18] = target: T6, F protein of hMPV strain NL\17\00 …; assay: cell-based or functional assay; remark: listed apart in the source
[19] = target: T2, soluble histidine-tagged hMPV F protein …; assay: Biacore 3000 SPR; antigen immobilised on CM5 at 134 RU, mAb injected
[20] = target: T3, F protein of hMPV strain NL\1\99 …; assay: cell-based or functional assay; remark: listed apart in the source
[21] = target: T5, F protein of hMPV strain NL\1\94 …; assay: cell-based or functional assay; remark: listed apart in the source
[22] = target: T4, F protein of hMPV strain NL\1\00 …; assay: cell-based or functional assay; remark: listed apart in the source
[23] = target: T6, F protein of hMPV strain NL\17\00 …; assay: cell-based or functional assay; remark: listed apart in the source
[24] = target: T1, soluble histidine-tagged hMPV F protein …; assay: Biacore SPR; F-99-1 immobilised at 300 RU, mAb injected
[25] = target: T1, soluble histidine-tagged hMPV F protein …; assay: Biacore SPR; F-99-1 immobilised at 146 RU, mAb injected

Row | Binder | Kd [1] [nM] | koff [1] [s⁻¹] | kon [1] [M⁻¹ s⁻¹] | Kd [2] [nM] | koff [2] [s⁻¹] | kon [2] [M⁻¹ s⁻¹] | IC50 in vitro neutralization [3] [µg/mL] | IC50 in vitro neutralization [4] [µg/mL] | Kd [5] [nM] | koff [5] [s⁻¹] | kon [5] [M⁻¹ s⁻¹] | Kd [6] [nM] | Kd [7] [nM] | Kd [8] [nM] | koff [8] [s⁻¹] | kon [8] [M⁻¹ s⁻¹] | Kd [9] [nM] | kon [9] [M⁻¹ s⁻¹] | Kd [10] [nM] | kon [10] [M⁻¹ s⁻¹] | also measured
1 | B1 | 1.42 | 0.000272 | 192000 | 1.74 | 0.000276 | 158000 | 0.03 | 0.4 | 1.73 | 0.000282 | 163000 | 1.7 | 1.4 | 1.42 | 0.000272 | 192000 | 1.74 | 158000 | 1.42 | 192000 | IC50 (neutralization titer) [11]: 0.03 µg/mL; IC50 (neutralization titer) [12]: 0.165 µg/mL; IC50 (neutralization titer) [13]: 0.375 µg/mL; IC50 (neutralization titer) [14]: 0.81 µg/mL; IC50 (virus neutralization) [15]: 0.03 µg/mL; IC50 (virus neutralization) [16]: 0.17 µg/mL; IC50 (virus neutralization) [17]: 0.38 µg/mL; IC50 (virus neutralization) [18]: 0.8 µg/mL; Kd [19]: 1.74 nM; koff [19]: 0.000276 s⁻¹; kon [19]: 158000 M⁻¹ s⁻¹; IC50 (neutralization titer) [20]: 0.2 nM; IC50 (neutralization titer) [21]: 1.1 nM; IC50 (neutralization titer) [22]: 2.5 nM; IC50 (neutralization titer) [23]: 5.4 nM; Kd [24]: 2.18 nM; koff [24]: 0.000293 s⁻¹; kon [24]: 134000 M⁻¹ s⁻¹
2 | B2 | 2.41 | 0.000463 | 192000 | 4.49 | 0.000352 | 78300 | 0.01 | 0.6 | 2.83 | 0.000382 | 135000 | 4.5 | 2.4 | 2.41 | 0.000463 | 192000 | 4.49 | 783000 | 2.41 | 192000 | Kd [25]: 3.83 nM; koff [25]: 0.000302 s⁻¹; kon [25]: 78900 M⁻¹ s⁻¹; IC50 (neutralization titer) [11]: 0.0075 µg/mL; IC50 (neutralization titer) [12]: 0.18 µg/mL; IC50 (neutralization titer) [13]: 0.585 µg/mL; IC50 (neutralization titer) [14]: 1.16 µg/mL; IC50 (virus neutralization) [15]: 0.01 µg/mL; IC50 (virus neutralization) [16]: 0.18 µg/mL; IC50 (virus neutralization) [17]: 0.59 µg/mL; IC50 (virus neutralization) [18]: 1.2 µg/mL; Kd [19]: 4.49 nM; koff [19]: 0.000352 s⁻¹; kon [19]: 78300 M⁻¹ s⁻¹; IC50 (neutralization titer) [20]: 0.05 nM; IC50 (neutralization titer) [21]: 1.2 nM; IC50 (neutralization titer) [22]: 3.9 nM; IC50 (neutralization titer) [23]: 7.7 nM
